The values that follow come from patent US20170218047A1, “NOVEL FUSION PARTNERS FOR THE PURPOSE OF CRYSTALLIZING G-PROTEIN COUPLED RECEPTORS” (THE SCRIPS RESEARCH INSTITUTE, priority 2011, published 2017).

The series is described as follows: Size exclusion chromatography (SEC) of purified S1P1-fusion partner proteins. The conditions noted are these: presence or absence of ligand. The series is classed as physicochemical. How it is done:
S1P1-fusion partner proteins (“S1P1 fusion receptors”) were purified from membranes by dodecyl-maltoside (DDM) extraction followed by immobilized metal affinity chromatography (IMAC) on Talon resin (Clontech) as detailed below. Frozen cellular membranes were thawed by adding room temperature lysis buffer to a total volume of 25 mL. The S1P1 receptor antagonist W146 was added to a final concentration of 125 μM. The mixture was allowed to incubate at room temperature for 1 hour to ensure complete saturation of the receptor with ligand followed by addition of iodoacetamide to a concentration of 1 mg/mL and an additional 1 hour incubation at 4° C. Receptor solubilization was initiated by addition of detergent and cholesteryl hemisuccinate (CHS) to achieve a final concentration of 0.5% DDM 0.1% CHS. The solubilization buffer consisted of the following mixture: 50 mM Hepes pH 7.5; 800 mM NaCl; 30 mM Imidazole; 0.1% DDM 0.02% CHS; 125 μM W146. […]
Eluted proteins were analyzed by size-exclusion chromatography (SEC) followed by SDS-PAGE. […] SEC fractions corresponding to S1P1-fusion partner proteins were evaluated separated by SDS-PAGE on a 10% gel and stained, confirming that each S1P1-fusion partner protein could be purified to near-homogeneity (data not shown).

B1: S1P1-flavodoxin: S1P1 receptor with flavodoxin replacing part of ICL3, SEQ ID NO: 3 (protein, listed as Homo sapiens)
chain: MGPTSVPLVKAHRSSVSDYVNYDIIVRHYNYTGKLNISADKENSIKLTSVVFILICCFIILENIFVLLTIWKTKKFHRPMYYFIGNLALSDLLAGVAYTANLLLSGATTYKLTPAQWFLREGSMFVALSASVFSLLAIAIERYITMLKMKLHNGSNNFRLFLLISACWVISLILGGLPIMGWNCISALSSCSTVLPLYHKHYILFCTTVFTLLLLSIVILYCRIYSLVRTRAKALIVYGSTTGNTEYTAETIARELADAGYEVDSRDAASVEAGGLFEGFDLVLLGCSTWGDDSIELQDDFIPLFDSLEETGAQGRKVACFGCGDSSWEYFCGAVDAIEEKLKNLGAEIVQDGLRIDGDPRAARDDIVGWAHDVRGAIASRSSENVALLKTVIIVLSVFIACWAPLFILLLLDVGCKVKTCDILFRAEYFLVLAVLNSGTNPIIYTLTNKEMRRAFIRIM
Turning to B1, the “stability by SEC (in words)” value is “stable in the presence or absence of ligand”.
